What was measured:
[1] = target: recombinant human TNF (human) (UniProt P01375); assay: sandwich ELISA, rhTNF 250 pg/ml captured by plate-bound antibody
[2] = target: recombinant human IL-6 (human) (UniProt P05231); assay: sandwich ELISA, rhIL-6 300 pg/ml captured by plate-bound antibody
[3] = target: recombinant bovine TNF (bovine) (UniProt Q06599); assay: cell-based or functional assay
[4] = target: recombinant canine TNF (canine) (UniProt P51742); assay: cell-based or functional assay
[5] = target: recombinant cynomolgus monkey TNF (cynomolgus monkey) (UniProt P79337); assay: cell-based or functional assay
[6] = target: recombinant human TNF (human) (UniProt P01375); assay: cell-based or functional assay
[7] = target: recombinant murine TNF (murine) (UniProt P06804); assay: cell-based or functional assay
[8] = target: recombinant rat TNF (rat) (UniProt P16599); assay: cell-based or functional assay
[9] = target: recombinant rhesus macaque TNF (rhesus macaque) (UniProt P48094); assay: cell-based or functional assay
[10] = target: transmembrane TNF on stimulated human PBMC (human) (UniProt P01375); assay: cell-based or functional assay
[11] = target: recombinant human TNF (human) (UniProt P01375); assay: anti-TNF ELISA, protein by BCA; first of two lots
[12] = target: recombinant human TNF (human) (UniProt P01375); assay: anti-TNF ELISA, protein by BCA; second of two lots
[13] = target: recombinant human TNF (human) (UniProt P01375); assay: anti-TNF ELISA, AU/mg of final lot over defatted colostrum
[14] = target: recombinant human TNF (human) (UniProt P01375); assay: table head: EC50 in TNF ELISA; the text that introduces the table speaks of the L929 neutralization assay

UniProt P05231, sequence (P05231 30-212 limits assumed): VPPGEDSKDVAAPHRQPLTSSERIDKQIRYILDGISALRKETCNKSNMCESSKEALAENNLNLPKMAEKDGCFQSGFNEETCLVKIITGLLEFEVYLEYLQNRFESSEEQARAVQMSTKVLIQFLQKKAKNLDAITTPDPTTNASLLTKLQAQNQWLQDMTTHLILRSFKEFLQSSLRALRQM
UniProt P06804, sequence (P06804 whole entry, form in doubt): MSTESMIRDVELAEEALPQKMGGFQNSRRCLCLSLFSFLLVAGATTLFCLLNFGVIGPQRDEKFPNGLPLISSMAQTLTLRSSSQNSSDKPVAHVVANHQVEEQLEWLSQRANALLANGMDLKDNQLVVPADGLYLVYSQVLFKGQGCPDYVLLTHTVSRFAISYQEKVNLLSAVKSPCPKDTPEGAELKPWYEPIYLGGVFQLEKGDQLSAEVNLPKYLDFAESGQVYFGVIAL
UniProt P51742, sequence (P51742 whole entry, form in doubt): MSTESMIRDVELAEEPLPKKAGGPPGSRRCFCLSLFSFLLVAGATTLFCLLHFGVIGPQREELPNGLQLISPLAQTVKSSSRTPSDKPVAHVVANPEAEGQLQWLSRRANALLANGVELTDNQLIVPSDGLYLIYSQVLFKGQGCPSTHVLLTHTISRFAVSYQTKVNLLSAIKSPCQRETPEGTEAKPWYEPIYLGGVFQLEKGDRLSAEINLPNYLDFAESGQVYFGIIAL
UniProt P16599, sequence (P16599 whole entry, form in doubt): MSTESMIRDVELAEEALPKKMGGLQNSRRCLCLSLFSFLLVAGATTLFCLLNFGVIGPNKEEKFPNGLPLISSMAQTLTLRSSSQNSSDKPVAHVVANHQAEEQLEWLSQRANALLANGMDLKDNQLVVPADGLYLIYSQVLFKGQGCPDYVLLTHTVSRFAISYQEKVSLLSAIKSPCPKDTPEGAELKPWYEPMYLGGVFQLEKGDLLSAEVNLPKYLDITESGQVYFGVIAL
UniProt Q06599, sequence (Q06599 whole entry, form in doubt): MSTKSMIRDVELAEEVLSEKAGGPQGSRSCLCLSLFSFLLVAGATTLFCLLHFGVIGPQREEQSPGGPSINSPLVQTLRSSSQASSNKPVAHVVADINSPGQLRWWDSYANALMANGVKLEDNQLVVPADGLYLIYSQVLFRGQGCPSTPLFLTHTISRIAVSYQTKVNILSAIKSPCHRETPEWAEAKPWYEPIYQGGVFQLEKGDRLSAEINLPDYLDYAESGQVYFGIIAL
UniProt P79337, sequence (P79337 whole entry, form in doubt): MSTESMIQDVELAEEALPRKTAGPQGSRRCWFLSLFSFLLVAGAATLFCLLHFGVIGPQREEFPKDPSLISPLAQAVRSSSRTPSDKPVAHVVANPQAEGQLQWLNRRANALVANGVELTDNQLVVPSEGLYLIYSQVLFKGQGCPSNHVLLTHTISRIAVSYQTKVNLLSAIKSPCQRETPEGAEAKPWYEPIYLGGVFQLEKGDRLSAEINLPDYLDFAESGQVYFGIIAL
UniProt P48094, sequence (P48094 whole entry, form in doubt): as the sequence (P79337 whole entry, form in doubt) above, with Q8R, A45T, V113L counted along it

Absorbance 450 nm (absorbance at 450 nm) [1]	Absorbance 450 nm (absorbance at 450 nm) [2]	EC50, L929 neutralization assay [3] [µg/mL]	EC50, L929 neutralization assay [4] [µg/mL]	EC50, L929 neutralization assay [5] [µg/mL]	EC50, L929 neutralization assay [6] [µg/mL]	EC50, L929 neutralization assay [7] [µg/mL]	EC50, L929 neutralization assay [8] [µg/mL]	EC50, L929 neutralization assay [9] [µg/mL]	Late apoptotic cells, annexin V / propidium iodide FACS of stimulated human PBMC (untreated 27.16%) [10] [%]	Total apoptotic cells, annexin V / propidium iodide FACS of stimulated human PBMC (untreated 34.65%) [10] [%]	anti-TNF activity by ELISA per mg protein (AU/mg protein) [11]	anti-TNF activity by ELISA per mg protein (AU/mg protein) [12]	fold increase of potency against defatted colostrum [13] [fold]	EC50 [14] [µg/mL]	Substance
-0.01	0.01														Control Bovine Ig (antibody)
0.76	0.03	> 2000	250	48	28	> 2000	> 2000	32	43.3	52.1	634	526	1.9	15.9	AVX-470, bovine colostrum-derived polyclonal anti-hTNF antibody

— patent US20130058943A1
